Measured values as given in patent EP3988566A1.

Key:
amyloid beta 1-42 fibers = amyloid beta 1-42 fibers (UniProt P05067); assay: cell-based or functional assay
[1] = target: amyloid beta 1-42 monomers (UniProt P05067); assay: cell-based or functional assay
Chain of amyloid beta 1-42 monomers (P05067 672-713 limits assumed): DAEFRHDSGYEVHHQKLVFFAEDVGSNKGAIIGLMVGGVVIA

Chain of amyloid beta 1-42 fibers (P05067 672-713 limits assumed): as above

disaggregation of pre-aggregated Aβ1-42, thioflavin T assay, antibody to Aβ1-42 molar ratio 1:10 (amyloid beta 1-42 fibers): 31.9%
disaggregation of pre-aggregated Aβ1-42, thioflavin T assay, antibody to Aβ1-42 molar ratio 1:100 (amyloid beta 1-42 fibers): 23.9%
inhibition of Aβ1-42 aggregation, thioflavin T assay, antibody to Aβ1-42 molar ratio 1:10 [1]: 80.4%
inhibition of Aβ1-42 aggregation, thioflavin T assay, antibody to Aβ1-42 molar ratio 1:100 [1]: 30%
Substance: humanized anti-human amyloid beta monoclonal antibody hC2
